Assay results from US7998940B2, “Aptamers to von Willebrand factor and their use as thrombotic disease therapeutics” (Archemix Corp., priority 2004, dated 2011).

Assays:
[1] = biological target: human vWF A1 domain (SEQ ID NO 5) (Homo sapiens, UniProt P04275, T1381A); assay: dot blot KD determination, human vWF A1 domain; conditions: DNA 1 minimers; competition dot blot, 10 nM protein
[2] = system: rabbit vWF A1 domain (SEQ ID NO 6); assay: 3-point dot blot screen, rabbit vWF A1 domain; format: binding; conditions: 3-point dot blot screen, 20 nM rabbit vWF A1 domain; ratio of fraction of aptamer bound with target protein to fraction bound without protein
Sequence of rabbit vWF A1 domain (SEQ ID NO 6) (as listed by the source): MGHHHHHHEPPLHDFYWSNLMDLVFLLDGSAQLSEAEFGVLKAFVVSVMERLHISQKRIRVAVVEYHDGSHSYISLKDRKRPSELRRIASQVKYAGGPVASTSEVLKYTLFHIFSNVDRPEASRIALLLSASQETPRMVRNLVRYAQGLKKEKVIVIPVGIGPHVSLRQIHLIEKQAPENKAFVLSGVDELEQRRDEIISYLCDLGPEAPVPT
Procedure, shortened: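 Rabbit vWF A1 domain binding was screened by dot blot using three conditions: no target protein, human vWF, and rabbit vWF A1 domain at 100 nM (20 nM in the screen run twice). Radiolabeled aptamer bound to nitrocellulose was quantified, and results are expressed as the ratio of bound fraction with protein to bound fraction without protein.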

full length human vWF = assay: 3-point dot blot screen, full length human vWF; format: binding; conditions: 20 nM full length human vWF, ratio of fraction of aptamer bound with target protein to fraction bound without protein
Text: When a significant positive ratio of binding of DNA in the presence of human or rabbit vWF A1 domain versus in the absence of protein was seen, the pools were cloned using the TOPO TA cloning kit (Invitrogen Cat. #45-0641, Carlsbad, Calif.) according to the manufacturer's instructions. Round 7 and 11 pool templates were cloned and sequenced (218 total sequences), producing 146 unique clones within 12 sequence families of which sequences from six families show vWF target binding activity. All unique clones were assayed twice in a 3-point dot blot screen (no protein target control, 20 nM full length human vWF (Calbiochem Cat. #681300, La Jolla, Calif.), or 20 nM rabbit vWF A1 domain. The data is presented in the third and fourth columns of Table 17 below as the ratio of the fraction of the aptamer bound to the nitrocellulose in the presence of the target protein to the fraction of aptamer bound in the absence of the target protein.

[3] = system: full length human vWF binding to lyophilized platelets; assay: Full length human von Willebrand Factor platelet binding assay (FACS); format: cell-based; conditions: 5 nM full length human vWF, lyophilized platelets, botrocetin; both bounds in nM
Procedure: The amount of vWF bound to fixed platelets can be measured with an antibody to vWF. The fluorescence signal from bound antibody incubated with a fluorescein conjugated secondary antibody is then detected and quantified by flow cytometry. The ability of an aptamer of the invention to block vWF binding to platelets is correlated with a reduction in fluorescence signal.
Aptamer potency to block human vWF binding to lyophilized platelets was assessed by flow cytometric analysis. Titrations of aptamers (0 nM, 0.1 nM to 1000 nM) were pre-incubated briefly with 5 nM of full length human vWF in FACS buffer (PBS plus 0.5% bovine serum albumin) at room temperature in a volume of 50 uL. Another 50 uL containing 5 uL of lyophilized platelets plus 1 uL of 0.1 U/uL of botrocetin in FACS buffer was added to aptamer/vWF. This reaction was allowed to proceed for 15 minutes at 37 degrees C. after which 200 uL of FACS buffer was added. Platelets were collected by a 6 minute spin at 1470 RCF and the supernatant was discarded. The pellets were resuspended in 100 uL of FACS buffer containing a 1:100 dilution of anti-vWF antibody and were incubated at room temperature for 30 minutes. After dilution with 200 uL of FACS buffer, the platelets were spun at 1470 RCF for 6 minutes and the supernatant was discarded. The pellets were resuspended in a 1:100 solution of anti-IgG2a-FITC antibody and were incubated in the dark for 30 minutes at room temperature. The entire 100 uL was diluted into 200 uL of FACS buffer and analyzed immediately by flow cytometric analysis in the FACSCAN. Artifactual data from contaminating debris was eliminated from the analysis by drawing a gate around the population of single and aggregated platelets. Mean fluorescent intensity (“MFI”) readings were quantified for each sample analyzed by flow cytometry. Background MFI was subtracted from all data points. Percent inhibition was reported by calculating the percent value of binding of full length human vWF to platelets in the presence of aptamer at a given concentration relative to binding in the absence of any aptamer (see FIG. 7). IC50 values were determined by fitting the percent inhibition of vWF binding to platelets as a function of aptamer concentration to the equation: % inhibition=% inhibitionmax/(1+IC50/aptamer conc.)

Sequence of human vWF A1 domain (SEQ ID NO 5) (P04275 with tags, fused parts or gaps T1381A): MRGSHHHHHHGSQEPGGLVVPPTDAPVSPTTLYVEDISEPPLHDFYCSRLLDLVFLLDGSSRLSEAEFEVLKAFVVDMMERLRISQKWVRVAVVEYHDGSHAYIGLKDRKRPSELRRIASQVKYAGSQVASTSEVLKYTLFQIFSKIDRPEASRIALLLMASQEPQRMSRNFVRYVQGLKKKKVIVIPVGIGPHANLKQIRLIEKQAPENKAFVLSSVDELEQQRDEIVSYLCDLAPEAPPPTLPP

Molecule | Human vWF A1 domain KD [1] | Screen Rabbit/No Protein [2] | Screen- Human/No Protein (full length human vWF) | Inhibition of full length hVWF binding in FACS assay, IC50 range [3]
CGATCTGACTAGCGGAATGAGAATGCTGGTGGATCG (DNA, backbone not given here) [SEQ ID NO 206] | No binding | – | – | –
AMX237.E10: DNA SELEX 2 aptamer clone (nucleic acid, DNA, backbone and methylation of C not given here, DNA SELEX 2 aptamer clone) DNA: CTACCTACGATCTGACTAGCGGAATGAGAATGCTGGTGGATTGCTCAGGTCTGCTGGCTGCTTACTCTCATGTAGTTCC | – | 6.04 | 1.12 | no activity
AMX237.E9: DNA SELEX 2 aptamer clone (nucleic acid, DNA, backbone not given here, DNA SELEX 2 aptamer clone) DNA: CTACCTACGATCTGACTAGCTCCAGTGTTTTGTCTAATAACCGTGCGGTGCCTCCGTGAGCTTACTCTCATGTAGTTCC | – | 2.06 | 2.13 | –
AMX238.D5: DNA SELEX 2 aptamer clone (nucleic acid, DNA, backbone not given here, DNA SELEX 2 aptamer clone) DNA: CTACCTACGATCTGACTAGCTCCAGTGTTTTATTCAATAACCGTGCGGTGTCTCCGTGAGCTTACTCTCATGTAGTTCC | – | 1.40 | 1.46 | –
AMX238.D8: DNA SELEX 2 aptamer clone (nucleic acid, DNA, backbone not given here, DNA SELEX 2 aptamer clone) DNA: CTACCTACGATCTGACTAGCTCCAGTGTTTTATCCAACAACCGTGCGGTGCCTCCGTGAGCTTACTCTCATGTAGTTCC | – | 1.97 | 2.02 | –
AMX237.D11: DNA SELEX 2 aptamer clone (nucleic acid, DNA, backbone not given here, DNA SELEX 2 aptamer clone) DNA: CTACCTACGATCTGACTAGCTCCAGTGTTTTATATAATAACCGTGCGGTGCCTCCGTGATGCTTACTCTCATGTAGTTCC | – | 1.17 | 1.16 | –
AMX236.F8: DNA SELEX 2 aptamer clone (nucleic acid, DNA, backbone not given here, DNA SELEX 2 aptamer clone) CTACCTACGATCTGACTAGCTCCAGTGTTTTATCCAATAACCGTGCGGTGCCTCCGTGATGCTTACTCTCATGTAGTTCC | – | 1.13 | 1.14 | –
AMX237.F6: DNA SELEX 2 aptamer clone (nucleic acid, DNA, backbone not given here, DNA SELEX 2 aptamer clone) DNA: CTACCTACGATCTGACTAGCTCCAGTGTTTTATCTAATAACCGTGCGGTGCCTCCGTGATGCTTACTCTCATGTAGTTCC | – | 1.21 | 1.20 | –
AMX237.C7: DNA SELEX 2 aptamer clone (nucleic acid, DNA, backbone not given here, DNA SELEX 2 aptamer clone) DNA: CTACCTACGATCTGACTAGCTCCAGTGTTTTATTCAATAACCGTGCGGTGCCTCCGTGATGCTTACTCTCATGTAGTTCC | – | 1.16 | 1.15 | –
AMX238.G6: DNA SELEX 2 aptamer clone (nucleic acid, DNA, backbone not given here, DNA SELEX 2 aptamer clone) DNA: CTACCTACGATCTGACTAGCTCCAGTGTTTTATCCAATAACCGTGCGGGGCCTCCGTGATGCTTACTCTCATGTAGTTCC | – | 1.22 | 1.25 | –
AMX237.F9: DNA SELEX 2 aptamer clone (nucleic acid, DNA, backbone not given here, DNA SELEX 2 aptamer clone) DNA: CTACCTACGATCTGACTAGCTTGGTAGCGATTCTGTGGAGCTGCGGTTTGGTCGACGTCAGCTTACTCTCATGTAGTTCC | – | 2.31 | 2.21 | –
AMX237.F12: DNA SELEX 2 aptamer clone (nucleic acid, DNA, backbone not given here, DNA SELEX 2 aptamer clone) DNA: CTACCTACGATCTGACTAGCTTGGTAGCGATTTTGTGGAGCTGCGGTTTGGTCGACGTCAGCTTACTCTCATGTAGTTCC | – | 2.08 | 1.95 | –
AMX236.B8: DNA SELEX 2 aptamer clone (nucleic acid, DNA, backbone not given here, DNA SELEX 2 aptamer clone) CTACCTACGATCTGACTAGCTTGGTAGCGACTCTGTGGAGCTGCGGTCTGGTCGACGTCAGCTTACTCTCATGTAGTTCC | – | 1.88 | 1.66 | –
AMX237.C9: DNA SELEX 2 aptamer clone (nucleic acid, DNA, backbone not given here, DNA SELEX 2 aptamer clone) DNA: CTACCTACGATCTGACTAGCTTGGTAGTGACTTTGTGGAGCTGCGGTTTGGTCGACGTCAGCTTACTCTCATGTAGTTCC | – | 2.19 | 2.05 | –
AMX238.E7: DNA SELEX 2 aptamer clone (nucleic acid, DNA, backbone not given here, DNA SELEX 2 aptamer clone) DNA: CTACCTACGATCTGACTAGCGTGCAGTGCCTATTTTAGGCCGTGCGGTGCCTCCGTCACGCTTACTCTCATGTAGTTCC | – | 2.83 | 3.02 | –
AMX238.F3: DNA SELEX 2 aptamer clone (nucleic acid, DNA, backbone not given here, DNA SELEX 2 aptamer clone) DNA: CTACCTACGATCTGACTAGCGTGCAGTGCCTATTTTAGGTCGTGCGGGGCCTCCGTCACGCTTACTCTCATGTAGTTCC | – | 2.72 | 2.83 | –
AMX237.C11: DNA SELEX 2 aptamer clone (nucleic acid, DNA, backbone not given here, DNA SELEX 2 aptamer clone) DNA: CTACCTACGATCTGACTAGCGTGCAGTGCCTATTCTAGGCCGTGCGGTGCCTCCGTCATGCTTACTCTCATGTAGTTCC | – | 1.95 | 2.04 | –
AMX238.F2: DNA SELEX 2 aptamer clone (nucleic acid, DNA, backbone not given here, DNA SELEX 2 aptamer clone) DNA: CTACCTACGATCTGACTAGCATGCAGTGCCCATTCTAGGCCGTGCGGTGCCTCCGTCATGCTTACTCTCATGTAGTTCC | – | 2.76 | 2.84 | –
AMX237.F10: DNA SELEX 2 aptamer clone (nucleic acid, DNA, backbone not given here, DNA SELEX 2 aptamer clone) DNA: CTACCTACGATCTGACTAGCGTGCAGTGCCCATTCCAGGCCGTGCGGTATCCTCCGTCACGCTTACTCTCATGTAGTTCC | – | 2.90 | 2.90 | –
AMX236.H2: DNA SELEX 2 aptamer clone (nucleic acid, DNA, backbone not given here, DNA SELEX 2 aptamer clone) CTACCTACGATCTGACTAGCGTGCAGTGCCTATCCCAGGCCGTGCGGTAGCCTCCGTCACGCTTACTCTCATGTAGTTCC | – | 2.06 | 2.12 | –
AMX237.C5: DNA SELEX 2 aptamer clone (nucleic acid, DNA, backbone not given here, DNA SELEX 2 aptamer clone) DNA: CTACCTACGATCTGACTAGCGTGCAGTGCCTATCTCAGGCCGTGCGGTATCCTCCGTCACGCTTACTCTCATGTAGTTCC | – | 2.36 | 2.55 | –
